In paper PMC7039684, “Control of cell death/survival balance by the MET dependence receptor” (eLife, 2020):
One block for each molecule: values may come before it.

What was measured:
Experiment in all cases: FRET or BRET; FLIM-FRET by TCSPC in live co-transfected HEK293T cells, 37°C, L-15 medium; lifetime of the mT2 donor against donor alone; SYFP2 or EYFP fusion as acceptor
BAK-mTurquoise2 = BAK-mTurquoise2 (UniProt Q16611)
BAK-SYFP2 = molecular target: T1, BAK-SYFP2 (UniProt Q16611 1-211); conditions: partners not purified
T1 construct: BAK, pro-apoptotic BCL2 family protein; amplified by PCR from Flag-tagged BAK; Cloned with EcoRI and XhoI into the SYFP2 plasmid; also called SYFP2-BAK; source: HEK293T or IHH cells, transfected, in live cells
T1 sequence (looked up): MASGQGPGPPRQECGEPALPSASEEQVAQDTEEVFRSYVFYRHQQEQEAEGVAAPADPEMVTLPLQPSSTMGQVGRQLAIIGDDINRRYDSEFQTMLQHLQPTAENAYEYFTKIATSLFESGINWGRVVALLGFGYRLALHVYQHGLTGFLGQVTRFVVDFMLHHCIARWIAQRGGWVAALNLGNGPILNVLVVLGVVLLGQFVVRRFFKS

BAX-SYFP2 = molecular target: T2, BAX-SYFP2 (UniProt Q07812 1-192); conditions: partners not purified
T2 construct: BAX, pro-apoptotic BCL2 family protein; amplified by PCR from Flag-tagged BAX; Cloned with EcoRI and XhoI into the SYFP2 plasmid; also called SYFP2-tagged BAX; source: HEK293T, transfected, in live cells

BAX-mTurquoise2 = molecular target: T3, BAX-mTurquoise2 (UniProt Q07812 1-192); conditions: partners not purified
T3 construct: BAX, pro-apoptotic BCL2 family protein; amplified by PCR from Flag-tagged BAX; Cloned with EcoRI and XhoI into the mTurquoise2 plasmid; also called BAX-mT2; mT2-fused BAX; source: HEK293T, transfected, in live cells
T3 sequence (Q07812 whole entry, the tested form may be a part): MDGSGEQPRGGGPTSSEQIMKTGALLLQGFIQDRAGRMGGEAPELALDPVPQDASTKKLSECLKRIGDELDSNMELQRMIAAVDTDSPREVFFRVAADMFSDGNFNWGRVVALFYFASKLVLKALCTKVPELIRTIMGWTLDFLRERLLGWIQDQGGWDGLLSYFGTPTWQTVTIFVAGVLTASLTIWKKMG

T2 sequence (Q07812 whole entry): as the sequence (Q07812 whole entry, the tested form may be a part) above

- mean FRET efficiency (BAK-mTurquoise2): < 0.1%
Molecule: free SYFP2 (Super Yellow Fluorescent Protein 2)

- mean FRET efficiency (BAK-SYFP2): 4%
- mean FRET efficiency (BAX-SYFP2): 2.5%
B1: p40MET-mTurquoise2 (domain or fragment, mouse, UniProt P16056 1001-1374, looked up)
chain: YRATFPEDQFPNSSQNGACRQVQYPLTDLSPILTSGDSDISSPLLQNTVHIDLSALNPELVQAVQHVVIGPSSLIVHFNEVIGRGHFGCVYHGTLLDNDGKKIHCAVKSLNRITDIEEVSQFLTEGIIMKDFSHPNVLSLLGICLRSEGSPLVVLPYMKHGDLRNFIRNETHNPTVKDLIGFGLQVAKGMKYLASKKFVHRDLAARNCMLDEKFTVKVADFGLARDMYDKEYYSVHNKTGAKLPVKWMALESLQTQKFTTKSDVWSFGVLLWELMTRGAPPYPDVNTFDITIYLLQGRRLLQPEYCPDALYEVMLKCWHPKAEMRPSFSELVSRISSIFSTFIGEHYVHVNATYVNVKCVAPYPSLLPSQDNID
notes: limits worked out from the stated caspase sites; also called p40MET-mT2; mT2-p40MET; source: HEK293T or IHH cells, transfected, in live cells

- mean FRET efficiency (BAX-mTurquoise2): 4.3%
B2: p40MET-SYFP2 (domain or fragment, mouse, UniProt P16056 1001-1374, looked up)
chain: YRATFPEDQFPNSSQNGACRQVQYPLTDLSPILTSGDSDISSPLLQNTVHIDLSALNPELVQAVQHVVIGPSSLIVHFNEVIGRGHFGCVYHGTLLDNDGKKIHCAVKSLNRITDIEEVSQFLTEGIIMKDFSHPNVLSLLGICLRSEGSPLVVLPYMKHGDLRNFIRNETHNPTVKDLIGFGLQVAKGMKYLASKKFVHRDLAARNCMLDEKFTVKVADFGLARDMYDKEYYSVHNKTGAKLPVKWMALESLQTQKFTTKSDVWSFGVLLWELMTRGAPPYPDVNTFDITIYLLQGRRLLQPEYCPDALYEVMLKCWHPKAEMRPSFSELVSRISSIFSTFIGEHYVHVNATYVNVKCVAPYPSLLPSQDNID
notes: limits worked out from the stated caspase sites; also called SYFP2-p40MET; source: HEK293T or IHH cells, transfected, in live cells
